Results on 2 molecules are retold here after patent publication US20250019439A1 (Adimab, published 2025).

The target in one assay is T1, ADI-26941 IgG.
T1 construct: anti-CD3 IgG
Put plainly: BLI; tip ADI-34134 IgG, solution anti-CD3 IgG. On the procedure:
(§1) ForteBio affinity measurements were performed generally as previously described (Estep et al., MAbs. 2013 5(2):270-8). Briefly, ForteBio affinity measurements were performed by loading antibody IgG or Fabs on-line onto AHC sensors. Sensors were equilibrated off-line in assay buffer for 30 minutes and then monitored on-line for 60 seconds for baseline establishment. For avid binding measurement, sensors with loaded antibodies were exposed to IgG or Fab solutions for 3 minutes, afterwards they were transferred to assay buffer for 3 minutes for off-rate measurement. Kinetics data were fit using a 1:1 binding model in the data analysis software provided by ForteBio to obtain equilibrium dissociation constant (KD=koff/kₒₙ) values. In each column, tip-immobilized antibodies are listed first and solution antibodies second.
(§2) In each column, tip-immobilized antibodies are listed first and solution antibodies second.

Assay [1] has as its target T2, ADI-26916 IgG.
T2 construct: anti-CD3 IgG
Put plainly: BLI; tip ADI-34134 IgG, solution anti-CD3 IgG. On the procedure:
as §1, §2
A general note: Biolayer interferometry detects binding as a change in optical thickness at a sensor tip.

Another assay addresses CTL-19613 IgG. Put plainly: BLI; tip ADI-34134 IgG, solution anti-CD3 IgG. On the procedure:
as §1, §2

In the next assay the target is T3, ADI-26954 IgG.
T3 construct: anti-CD3 IgG
Put plainly: BLI; tip ADI-34134 IgG, solution anti-CD3 IgG. On the procedure: as §1, §2

The target in the next assay is T4, ADI-26906 IgG.
T4 construct: anti-CD3 IgG
Briefly: BLI; tip ADI-34134 IgG, solution anti-CD3 IgG. On the procedure: as §1, §2

In assay [2] the target is T5, ADI-26913 IgG.
T5 construct: anti-CD3 IgG
Put plainly: BLI; tip ADI-34134 IgG, solution anti-CD3 IgG. On the procedure: as §1, §2

The next assay deals with T6, ADI-22523 IgG.
T6 construct: anti-CD3 IgG
Put plainly: BLI; tip ADI-34134 IgG, solution anti-CD3 IgG. On the procedure: as §1, §2

Another assay has as its target T7, ADI-26921 IgG.
T7 construct: anti-CD3 IgG
Put plainly: BLI; tip ADI-34134 IgG, solution anti-CD3 IgG. On the procedure:
as §1, §2

The next assay concerns the target T8, ADI-26927 IgG.
T8 construct: anti-CD3 IgG
Briefly: BLI; tip ADI-34134 IgG, solution anti-CD3 IgG. On the procedure:
as §1, §2

The target of another assay is T9, ADI-26928 IgG.
T9 construct: anti-CD3 IgG
Briefly: BLI; tip ADI-34134 IgG, solution anti-CD3 IgG. On the procedure: as §1, §2

The next assay deals with T10, ADI-70330.
T10 construct: anti-CD3 antibody made in CHO cells, captured by anti-human Fc
Briefly: SPR Carterra avidity, CHO anti-ID. On the procedure:
(§3) Kinetic analysis was conducted at 25° C. in an HBSTE running buffer system (Carterra Cat #3630) using a Carterra LSA (Carterra USA, Salt Lake City, UT). The sample compartment was maintained at 20° C. for the duration of each experiment.
(§4) For antibody capture experiments, a goat anti-human Fc antibody (Jackson ImmunoResearch) was covalently coupled to an HC30M sensor chip surface via standard amine coupling (1:1 EDC:NHS) and then blocked with ethanolamine (1.0 M, pH 8.5). Covalent coupling steps were performed in 25 mM MES buffer (Carterra, Cat #3625) plus 0.05% Tween20. The anti-CD3 antibodies (100 nM in running buffer) were flowed over discrete regions of interest on the chip surface for 5 minutes. […] Dissociation of the anti-idiotype antibodies was monitored for 300s. Several blank buffer samples were injected over the entire chip surface at the start of each non-regenerative kinetic cycle. The preceding blank buffer injection was used for blank surface subtraction. At the end of each non-regenerative kinetic cycle, all surfaces were regenerated via two 30s injections of 10 mM glycine, pH 1.7.
(§5) In Tables 10A-10C, anti-CD3 antibodies are listed by ADI number or CTL number in the first column. […] CTL-62223 is mosunetuzumab, CTL-62227 is odronextamab, CTL-62228 is glofitamab, and CTL-62240 is ONO-4685. […] “W.B.” means weak binding under the conditions of this assay and thus a KD was unable to be assigned. “N.B.” means no binding under the conditions of this assay.

The target of assay [3] is T11, ADI-70326.
T11 construct: anti-CD3 antibody made in CHO cells, captured by anti-human Fc
Put plainly: SPR Carterra avidity, CHO anti-ID. On the procedure: as §3, §4, §5

For the next assay, the target named is T12, ADI-76358.
T12 construct: anti-CD3 antibody made in CHO cells, captured by anti-human Fc
Put plainly: SPR Carterra avidity, CHO anti-ID. On the procedure: as §3, §4, §5

A further assay has as its target T13, ADI-76362.
T13 construct: anti-CD3 antibody made in CHO cells, captured by anti-human Fc
Put plainly: SPR Carterra avidity, CHO anti-ID. On the procedure: as §3, §4, §5

The target in assay [4] is T5, ADI-26913 IgG. Put plainly: SPR Carterra avidity, CHO anti-ID. On the procedure:
as §3, §4, §5

A further assay addresses T14, ADI-70327.
T14 construct: anti-CD3 antibody made in CHO cells, captured by anti-human Fc
Briefly: SPR Carterra avidity, CHO anti-ID. On the procedure:
as §3, §4, §5

The next assay addresses T15, ADI-67450.
T15 construct: anti-CD3 antibody made in CHO cells, captured by anti-human Fc
Briefly: SPR Carterra avidity, CHO anti-ID. On the procedure:
as §3, §4, §5

In the next assay the target is T16, ADI-74966.
T16 construct: pH-dependent anti-CD3 antibody made in CHO cells
Briefly: SPR Carterra avidity, CHO anti-ID. On the procedure:
as §3, §4, §5

A further assay deals with T17, ADI-76360.
T17 construct: anti-CD3 antibody made in CHO cells, captured by anti-human Fc
Put plainly: SPR Carterra avidity, CHO anti-ID. On the procedure:
as §3, §4, §5

The target of assay [5] is T2, ADI-26916 IgG. Put plainly: SPR Carterra avidity, yeast anti-ID, *koff limit. In short, it runs like this: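 Anti-CD3 IgGs (100 nM) captured on goat anti-human Fc amine-coupled HC30M chip; anti-idiotype antibodies flowed as analytes, dissociation 300 s, HBSTE running buffer, 25° C. Double-referenced sensorgrams fitted to 1:1 model; glycine pH 1.7 regeneration.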
The next assay addresses T18, CTL-62228.
T18 construct: also called glofitamab
Put plainly: SPR Carterra, CHO anti-ID. On the procedure: as §3, §4, §5

The next assay has as its target T19, CTL-62240.
T19 construct: also called ONO-4685
Put plainly: SPR Carterra, CHO anti-ID. On the procedure:
as §3, §4, §5

The next assay concerns the target T20, CTL-62227.
T20 construct: also called odronextamab
Briefly: SPR Carterra, CHO anti-ID. On the procedure:
as §3, §4, §5

The target in a further assay is T21, ADI-26943.
T21 construct: anti-CD3 antibody made in CHO cells, captured by anti-human Fc
Briefly: SPR Carterra avidity, CHO anti-ID. On the procedure:
as §3, §4, §5

The target of the next assay is T22, ADI-26919.
T22 construct: anti-CD3 antibody made in CHO cells, captured by anti-human Fc
Put plainly: SPR Carterra avidity, CHO anti-ID. On the procedure:
as §3, §4, §5

For a further assay, the target named is T23, ADI-26920 IgG.
T23 construct: anti-CD3 IgG
Put plainly: SPR Carterra avidity, CHO anti-ID. On the procedure: as §3, §4, §5

The target in a further assay is T24, ADI-76357.
T24 construct: anti-CD3 antibody made in CHO cells, captured by anti-human Fc
Put plainly: SPR Carterra avidity, CHO anti-ID. On the procedure:
as §3, §4, §5

The target in the next assay is T25, ADI-67447.
T25 construct: anti-CD3 antibody made in CHO cells, captured by anti-human Fc
Briefly: SPR Carterra avidity, CHO anti-ID. On the procedure:
as §3, §4, §5

For assay [6], the target named is T11, ADI-70326. Briefly: SPR Carterra, CHO anti-ID. On the procedure:
as §3, §4, §5

T11 sequence (VH, as listed by the source limits assumed, chain 1 of 2): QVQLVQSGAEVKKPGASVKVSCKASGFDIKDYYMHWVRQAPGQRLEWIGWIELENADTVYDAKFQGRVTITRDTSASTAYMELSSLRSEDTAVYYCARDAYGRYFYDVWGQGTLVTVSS
T11 sequence (VL, as listed by the source limits assumed, chain 2 of 2): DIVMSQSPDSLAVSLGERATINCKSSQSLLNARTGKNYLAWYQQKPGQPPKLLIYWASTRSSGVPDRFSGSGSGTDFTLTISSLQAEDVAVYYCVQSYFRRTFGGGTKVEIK
T5 sequence (VH, as listed by the source limits assumed, chain 1 of 2): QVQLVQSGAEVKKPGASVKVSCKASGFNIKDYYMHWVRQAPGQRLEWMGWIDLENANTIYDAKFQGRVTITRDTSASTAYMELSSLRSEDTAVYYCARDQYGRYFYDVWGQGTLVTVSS
T5 sequence (VL, as listed by the source limits assumed, chain 2 of 2): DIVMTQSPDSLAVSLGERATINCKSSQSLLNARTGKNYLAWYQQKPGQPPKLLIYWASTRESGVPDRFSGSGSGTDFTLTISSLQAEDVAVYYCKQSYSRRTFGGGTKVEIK
T2 sequence (VH, as listed by the source, chain 1 of 2): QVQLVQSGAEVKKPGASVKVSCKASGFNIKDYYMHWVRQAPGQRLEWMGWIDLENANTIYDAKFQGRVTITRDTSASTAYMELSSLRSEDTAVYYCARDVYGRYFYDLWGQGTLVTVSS
T21 sequence (VH, as listed by the source, chain 1 of 2): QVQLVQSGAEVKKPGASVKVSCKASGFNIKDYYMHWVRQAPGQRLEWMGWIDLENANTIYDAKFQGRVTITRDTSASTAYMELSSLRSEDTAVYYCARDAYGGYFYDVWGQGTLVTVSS
T21 sequence (VL, as listed by the source, chain 2 of 2): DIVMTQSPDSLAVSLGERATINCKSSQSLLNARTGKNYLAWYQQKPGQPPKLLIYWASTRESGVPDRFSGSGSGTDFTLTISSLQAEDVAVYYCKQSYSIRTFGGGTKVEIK
T23 sequence (VH, as listed by the source limits assumed, chain 1 of 2): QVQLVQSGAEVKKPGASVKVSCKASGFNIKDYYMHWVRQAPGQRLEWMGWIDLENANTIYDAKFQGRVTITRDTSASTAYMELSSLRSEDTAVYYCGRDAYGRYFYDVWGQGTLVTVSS
T23 sequence (VL, as listed by the source limits assumed, chain 2 of 2): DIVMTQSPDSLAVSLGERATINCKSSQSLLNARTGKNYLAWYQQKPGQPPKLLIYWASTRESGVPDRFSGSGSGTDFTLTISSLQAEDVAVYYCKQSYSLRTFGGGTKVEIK
T9 sequence (VH, as listed by the source limits assumed, chain 1 of 2): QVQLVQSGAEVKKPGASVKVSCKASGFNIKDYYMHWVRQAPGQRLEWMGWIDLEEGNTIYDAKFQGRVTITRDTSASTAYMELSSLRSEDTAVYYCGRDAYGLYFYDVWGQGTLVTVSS
T20 sequence (VH, as listed by the source, chain 1 of 2): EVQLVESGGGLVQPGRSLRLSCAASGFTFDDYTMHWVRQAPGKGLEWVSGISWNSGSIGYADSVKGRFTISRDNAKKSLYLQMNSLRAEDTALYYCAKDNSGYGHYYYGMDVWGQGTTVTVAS
T20 sequence (VL, as listed by the source, chain 2 of 2): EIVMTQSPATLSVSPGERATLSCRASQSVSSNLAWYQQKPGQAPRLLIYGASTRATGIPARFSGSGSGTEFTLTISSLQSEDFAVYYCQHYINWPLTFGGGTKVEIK
T1 sequence (VH, as listed by the source limits assumed, chain 1 of 2): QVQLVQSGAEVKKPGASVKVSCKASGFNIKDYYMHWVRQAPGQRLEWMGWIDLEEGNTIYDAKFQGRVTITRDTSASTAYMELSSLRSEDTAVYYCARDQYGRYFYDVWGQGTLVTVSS
T3 sequence (VH, as listed by the source limits assumed, chain 1 of 2): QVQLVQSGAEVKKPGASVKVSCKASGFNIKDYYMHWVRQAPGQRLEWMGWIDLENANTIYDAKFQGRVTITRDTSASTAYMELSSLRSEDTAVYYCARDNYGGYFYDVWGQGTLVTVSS
T3 sequence (VL, as listed by the source limits assumed, chain 2 of 2): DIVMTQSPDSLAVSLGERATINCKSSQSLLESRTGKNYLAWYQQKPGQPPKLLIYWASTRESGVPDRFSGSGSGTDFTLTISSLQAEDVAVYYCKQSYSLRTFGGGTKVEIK
T8 sequence (VH, as listed by the source limits assumed, chain 1 of 2): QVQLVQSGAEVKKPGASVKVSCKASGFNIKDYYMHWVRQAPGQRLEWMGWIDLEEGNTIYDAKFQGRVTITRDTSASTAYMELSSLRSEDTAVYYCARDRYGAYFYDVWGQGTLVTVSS
T22 sequence (VH, as listed by the source limits assumed, chain 1 of 2): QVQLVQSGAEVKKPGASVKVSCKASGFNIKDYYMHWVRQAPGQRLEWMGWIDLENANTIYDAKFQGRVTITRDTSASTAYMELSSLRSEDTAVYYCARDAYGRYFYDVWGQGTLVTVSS
T12 sequence (VH, as listed by the source, chain 1 of 2): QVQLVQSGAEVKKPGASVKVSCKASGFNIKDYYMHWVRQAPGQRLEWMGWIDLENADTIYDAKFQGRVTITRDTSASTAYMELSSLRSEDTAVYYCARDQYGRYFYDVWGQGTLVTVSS
T25 sequence (VH, as listed by the source limits assumed, chain 1 of 2): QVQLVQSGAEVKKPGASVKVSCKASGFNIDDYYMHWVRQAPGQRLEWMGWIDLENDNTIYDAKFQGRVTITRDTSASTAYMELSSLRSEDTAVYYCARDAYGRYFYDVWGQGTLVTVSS
T6 sequence (VH, as listed by the source limits assumed, chain 1 of 2): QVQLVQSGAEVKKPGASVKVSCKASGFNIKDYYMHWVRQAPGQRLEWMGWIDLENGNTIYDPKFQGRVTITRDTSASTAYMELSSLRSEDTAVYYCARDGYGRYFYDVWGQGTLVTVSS
T6 sequence (VL, as listed by the source limits assumed, chain 2 of 2): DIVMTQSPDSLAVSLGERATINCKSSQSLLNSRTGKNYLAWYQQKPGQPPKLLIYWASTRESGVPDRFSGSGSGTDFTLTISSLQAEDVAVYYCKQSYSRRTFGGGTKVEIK
T24 sequence (VH, as listed by the source, chain 1 of 2): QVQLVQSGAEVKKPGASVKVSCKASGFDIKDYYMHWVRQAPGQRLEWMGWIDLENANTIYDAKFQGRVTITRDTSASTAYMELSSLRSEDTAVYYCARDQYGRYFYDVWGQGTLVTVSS
T14 sequence (VH, as listed by the source limits assumed, chain 1 of 2): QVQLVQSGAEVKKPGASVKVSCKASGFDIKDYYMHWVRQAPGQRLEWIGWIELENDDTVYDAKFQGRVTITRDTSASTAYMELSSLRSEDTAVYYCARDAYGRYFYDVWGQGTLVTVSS
T15 sequence (VH, as listed by the source limits assumed, chain 1 of 2): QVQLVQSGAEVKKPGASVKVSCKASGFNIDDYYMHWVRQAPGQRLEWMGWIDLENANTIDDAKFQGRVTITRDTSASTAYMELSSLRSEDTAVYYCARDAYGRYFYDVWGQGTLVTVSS

B1: ADI-34134 IgG (antibody, V domains shown)
VH: QVQLVQSGAEVKKPGSSVKVSCKASGGTFSSYAISWVRQAPGQGLEWMGGIIPIFGTANYAQKFQGRVTITADESTSTAYMELSSLRSEDTAVYYCARGAPNYYGSGGYDDGWFDPWGQGTLVTVSS
VL: EIVLTQSPGTLSLSPGERATLSCRASQSVSSDYLAWYQQKPGQAPRLLIYGASSRATGIPDRFSGSGSGTDFTLTISRLEPEDFAVYYCQQFGRVPTFGGGTKVEIK
For the molecule B1, the Kd with ADI-26941 IgG was found to be 1.13 nM; with ADI-26916 IgG [1], 0.57 nM; with CTL-19613 IgG, 9.21 nM; in the assay with ADI-26954 IgG, 1.04 nM; in the assay with ADI-26906 IgG it was 0.43 nM; in the assay with ADI-26913 IgG [2], 0.77 nM. In addition, the Kd worked out at 0.46 nM with ADI-22523 IgG; 0.85 nM in the assay with ADI-26921 IgG; 0.45 nM with ADI-26927 IgG; 0.46 nM with ADI-26928 IgG; 0.64 nM with ADI-70330; 1.2 nM in the assay with ADI-70326 [3]. Also, the Kd in the assay with ADI-76358 was 0.54 nM; in the assay with ADI-76362 it was 0.23 nM; in the assay with ADI-26913 IgG [4] it was 0.13 nM; with ADI-70327, 1.3 nM; with ADI-67450, 0.68 nM; with ADI-74966, 0.39 nM. For the same molecule, the Kd amounted to 0.21 nM in the assay with ADI-76360 and 6.3 nM with ADI-26916 IgG [5]. For the same molecule, the binding result with CTL-62228, with CTL-62240 and in the assay with CTL-62227 was “no binding (tested: up to 200 nM)” each time.

B2: ADI-34145 IgG (antibody, V domains shown)
VH: EVQLLESGGGLVQPGGSLRLSCAASGFTFSSYAMSWVRQAPGKGLEWVSTISGSGGSTYYADSVKGRFTISRDNSKNTLYLQMNSLRAEDTAVYYCARLGGRRGSGSSYYYYYGMDVWGQGTTVTVSS
VL: not shown
notes: anti-ID IgG
For B2, the Kd was found to be 4.2 nM in the assay with ADI-26943; 12 nM with ADI-26919; 15 nM with ADI-26920 IgG; 5.6 nM with ADI-76357; 14 nM with ADI-67447. Besides, in the assay with ADI-70326 [6], the binding result is listed as “no binding (tested: up to 200 nM)”.
